The values that follow are results of earlier work, collected in patent publication US20160114039A1, “TREATMENT OF POLYPOIDAL CHOROIDAL VASCULOPATHY” (BAYER HEALTHCARE LLC, priority 2013, published 2016).

This data set concerns symptomatic PCV. The following applies: sixty-one Asian patients with symptomatic PCV; primary end point assessed at month 6.

B1: ranibizumab (antibody, chains of the INN, looked up, V domains shown)
VH: EVQLVESGGGLVQPGGSLRLSCAASGYDFTHYGMNWVRQAPGKGLEWVGWINTYTGEPTYAADFKRRFTFSLDTSKSTAYLQMNSLRAEDTAVYYCAKYPYYYGTSHWYFDVWGQGTLVTVSS
VL: DIQLTQSPSSLSASVGDRVTITCSASQDISNYLNWYQQKPGKAPKVLIYFTSSLHSGVPSRFSGSGSGTDFTLTISSLQPEDFATYYCQQYSTVPWTFGQGTKVEIK
modifications: Fab
notes: anti-VEGF agent ranibizumab (Lucentis)
On to B1, for which the complete polyp regression was 28.6%.
